Experimental findings from patent publication US20250042970A1 (AURINIA PHARMACEUTICALS, published 2025) are described below.

What all share (test): KinExA
(In general: Kinetic exclusion samples the free partner from a solution-phase mixture.)

In assay [1] the target is T1, FLAG-tagged human BAFF (human, UniProt Q9Y275 134-285, limits assumed).
T1 construct: used in BIACORE (Ex. 9) and KINEXA (Ex. 11); also called huBAFF
The method, then:
(§1) Equilibrium measurements were performed using FLAG-tagged, recombinant huBAFF and huAPRIL ligands. Fixed ligand concentrations of human BAFF or human APRIL were incubated with serial dilutions of the variant BCMA ECD-Ig fusion polypeptides, and free ligand was detected in a KINEXA 3200 Instrument. variant BCMA ECD-Ig fusion polypeptides were first diluted in equilibration buffer (1×PBS, pH 7.4, 1 mg/ml BSA) to a range of concentrations from 10 nM to 100 fM. The linear portion of the dilution series was typically 2-fold. Ligands were diluted in equilibration buffer to fixed concentrations ranging from 5 to 20 pM and then incubated with the variant BCMA-Ig dilutions in total reaction volumes ranging from 4.5 to 15 ml. Samples were incubated at room temperature for 48-72 hours to reach equilibrium. For each data point, a fresh column of 850 μl of bead slurry coated with Variant BAv-238475-Ig was introduced into the KINEXA flow cell. Equilibrated samples ranging from 1 to 5 ml reaction volume were injected at a flow rate of 0.25 ml/min. […] The DyLight 649 fluorescent signal was detected using the red filter set (620/30 nanometer excitation filter, 670/40 nanometer emission filter, 645 nanometer dichroic filter) on the KinExA instrument and converted to a voltage signal that was directly proportional to the concentration of free ligand in the equilibrated sample.
(§2) Table 5 provides the selectivities of exemplary variant BCMA polypeptides with respect to BAFF and APRIL.

Assay [2] addresses T2, FLAG-tagged recombinant human APRIL (human, UniProt O75888 105-250).
T2 construct: KINEXA ligand; also called huAPRIL
T2 sequence: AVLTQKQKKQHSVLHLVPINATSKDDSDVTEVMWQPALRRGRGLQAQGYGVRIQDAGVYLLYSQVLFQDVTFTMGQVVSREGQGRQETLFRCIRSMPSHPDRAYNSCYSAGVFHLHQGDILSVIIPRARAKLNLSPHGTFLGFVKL
The protocol:
as §1, §2

The target in assay [3] is T1, FLAG-tagged human BAFF. The protocol: as §1
(§3) The standard kinetic exclusion assays and data analyses described above were performed on protein preparations of various variant BCMA ECD-Ig fusion polypeptides, as well as Z-TACI-Ig and [S40G]huBCMA ECD-Ig fusion polypeptides. FIG. 8A, FIG. 8B, and Table 4 summarize the binding data for representative variant BCMA ECD-Ig polypeptides and controls in molar concentrations of huBAFF or huAPRIL determined by KINEXA binding assays.
The source holds these as a separate data set.

Assay [4] deals with T2, FLAG-tagged recombinant human APRIL. The method, then:
as §1, §3
This is another data set of the same source.

B1: Variant 9-3-Ig (Fc fusion, human)
chain: AGQCSQNEYFDHLVRACIPCQVRCSSNTPPLTCQRYCNAGVTNSVKGTNAERKSSVECPPSPAPPVAGPSVFLFPPKPKDTLMISRTPEVTCVVVDVSHEDPEVQFNWYVDGVEVHNAKTKPREEQFNSTFRVVSVLTVVHQDWLNGKEYKCKVSNKGLPAPIEKTISKTKGQPREPQVYTLPPSREEMTKNQVSLTCLVKGFYPSDISVEWESNGQPENNYKTTPPMLDSDGSFFLYSKLTVDKSRWQQGNVFSCSVMHEALHNHYTQKSLSLSPGK
notes: domain: Fc; also called BAv9-3
For the molecule B1, in the assay with FLAG-tagged human BAFF [1], the “Selectivity for huBAFF (KD APRIL/KD BAFF)” value (from here on “Selectivity for huBAFF”) stood at 221 ratio. Besides, the “Selectivity for huAPRIL (KD BAFF/KD APRIL)” value (“Selectivity for huAPRIL” for short) in assay [2] is 0.005 ratio. The results for the “fold improvement over control” value (in the assay with FLAG-tagged human BAFF [3]; in assay [4]) were 2660 fold and 0.008 fold, respectively.

B2: BAv51-Ig (Fc fusion)
chain: AGQCSQNEYFDHLIRACIPCQARCSSNTPPLTCQRYCNAGVTNSVKGTNA
notes: also called BAv51 (2)-Ig; not shown: PIg18: human IgG2 Fc, Ser at Fc positions 4, 5, 11 (native Cys)
One may read the Kd as the free concentration of one partner at which half of the binding sites on the other are occupied at equilibrium, for simple one-to-one binding. B2: the “Selectivity for huBAFF” value with FLAG-tagged human BAFF [1] turned out to be 369 ratio. Also, the “Selectivity for huAPRIL” value in assay [2] came to 0.003 ratio. In the assay with FLAG-tagged human BAFF [3], the dissociation constant Kd stood at 0.192 pM and the “fold improvement over control” value stood at 1180 fold. Also, in assay [4], the Kd amounted to 70.8 pM and the “fold improvement over control” value was 0.00225 fold.

B3: BAv60-Ig (Fc fusion)
chain: AGQCSQNEYFDSLVRHCIPCQVRCSSNTPPLTCQRYCNAGVTNSVKGTNA
notes: also called BAv60 (2)-Ig; not shown: PIg18: human IgG2 Fc, Ser at Fc positions 4, 5, 11 (native Cys)
For the molecule B3, in the assay with FLAG-tagged human BAFF [1], the “Selectivity for huBAFF” value came to 957 ratio. Further, the “Selectivity for huAPRIL” value in assay [2] came to 0.001 ratio. Also, in the assay with FLAG-tagged human BAFF [3], the Kd was determined as 0.0537 pM and the “fold improvement over control” value turned out to be 4200 fold. In assay [4], the Kd amounted to 51.4 pM and the “fold improvement over control” value was 0.0031 fold.

B4: BAv74-Ig (Fc fusion)
chain: AGQCSQNEYFDHLIRACTPCQVRCSSNTPPLTCQRYCNAGVTNSVKGTNA
notes: not shown: PIg18: human IgG2 Fc, Ser at Fc positions 4, 5, 11 (native Cys)
For B4, in the assay with FLAG-tagged human BAFF [1], the “Selectivity for huBAFF” value amounted to 0.84 ratio. In assay [2], the “Selectivity for huAPRIL” value worked out at 1.19 ratio. In addition, in the assay with FLAG-tagged human BAFF [3], the Kd is 21.8 pM and the “fold improvement over control” value came to 10.4 fold. Besides, in assay [4], the dissociation constant (Kd) came out at 18.3 pM and the “fold improvement over control” value amounted to 0.00871 fold.

B5: BAv58-Ig (Fc fusion)
chain: AGQCSQNEYFDSLVRHCIPCQIRCSSNTPPLTCQRYCNAGVTNSVKGTNA
notes: as for B4
As for B5, the “Selectivity for huBAFF” value with FLAG-tagged human BAFF [1] worked out at 129 ratio. Also, the “Selectivity for huAPRIL” value in assay [2] stood at 0.008 ratio. Also, the Kd in the assay with FLAG-tagged human BAFF [3] came out at 0.24 pM; in assay [4], 31 pM. Moreover, the “fold improvement over control” value with FLAG-tagged human BAFF [3] was found to be 940 fold; in assay [4], 0.00514 fold.

B6: BAv53-Ig (Fc fusion)
chain: AGQCSQNEYFDSLIRHCIPCQVRCSSNTPPLTCQRYCNAGVTNSVKGTNA
notes: as for B4
Consider B6, for which the “Selectivity for huBAFF” value with FLAG-tagged human BAFF [1] was 73.6 ratio. In addition, the “Selectivity for huAPRIL” value in assay [2] is 0.014 ratio. Further, in the assay with FLAG-tagged human BAFF [3], the Kd turned out to be 0.462 pM and the “fold improvement over control” value worked out at 488 fold. Further, in assay [4], the Kd was found to be 34 pM and the “fold improvement over control” value was determined as 0.00469 fold.
